# Results reported in the supplement of paper PMC12764529.
# ± gives the half width of the 95% confidence interval.
# Assay: folding stability dG unfold from trypsin proteolysis; higher = more stable
# Method in brief: (§1)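 Mini-proteins designed to be under 80 residues and free of cysteine were carried in a PA-tagged cDNA display construct and digested with trypsin and with chymotrypsin. Each protease was applied at 11 threefold-diluted concentrations, alongside a no-protease condition, before sequencing. K50 came from Bayesian fitting of the sequencing counts, and unfolding free energy was obtained by comparing it with a sequence-predicted unfolded-state K50 and a shared folded-state K50, for each protease separately or for both together. Designs were retained only if their AlphaFold2 dimer inter-PAE exceeded 15.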
row,Sequence,folding stability dG unfold [kcal/mol]
1,SAGGSAGGSAGGMEISEKLREYIEKLGKKVSEEEALAIAEEKAKELKEKGIEDVTIVLPVSAGGSAGGSAGG [r7_512_JUSTAS],-0.0343 ± 0.1
2,DTVTIVVEGMSEEEVLEKARAAAEELAKEGKTVEIVVKLSPEALKKAGVEKVEEVEDEETGLLVIKVEVKPS [r1_467_TrROS_Hall],1.04 ± 0.13
3,SAGGSASAEEAARAFVAAHPDRALVEVEIERSFIPEKGVEVVTLTVTLAFPDGSRRVVPVTVTRPRSAGGSA [r15_266_JUSTAS],1.11 ± 0.044
4,SAGGSAGGMVIPFILPGSEFEEEEAIERLLELIETARELNPDTPIIANPLILEVPPPPTETELGSAGGSAGG [r6_728_TrMRF],1.36 ± 0.099
5,SKTVVIKIDNRVPVPKSDKYVPIKEEFFLKVINEIKKKGYKVIITGANPDNPLAKEVAKKAKELGFEVVGSA [r9_468_TrMRF],0.992 ± 0.014
6,SAGGSAGGSAGGKPVKLEISFDKETNTITIKAVDEENKTVTETTIKVTFLPPPPPPPPKSAGGSAGGSAGGS [r10_331_TrROS_Hall],1.09 ± 0.12
7,SAKKKYIAKVLIEKGDKIIEIEIPGDATVKNPDGKEYTFKVESPEKLKEAIKKLFPEKYPAKILEVKEESAG [r14_41_TrMRF],1.18 ± 0.058
8,SAGPEREVEVETLVIEAEDGKERLVLRLVRVDGRLYLEVRRYRDGKWEEVARFEAPEEITLSPELLKALSAG [r5_490_TrROS_Hall],4.09 ± 0.091
9,SAERTPVREADIPIPGLPVVVRVRTYAEAVELARKSGVPVVVETVEVEVFLPDGSRVRFPAPGLLVLDGSAG [r14_100_TrMRF],1.41 ± 0.0081

# Assay: folding stability dG unfold (combined trypsin and chymotrypsin); higher = more stable
# Method in brief: as §1
row,Sequence,folding stability dG unfold [kcal/mol]
1,SAGGMMTVRIVIEKDGKKITITAKVTKIEFDEETGKLTITFEDGSKKEIDLDKLKIKKIEVEPAPEEESAGG [r13_636_TrROS_Hall],2.81 ± 0.21
2,SAGGSAGGIHPDVKVKLVKIVSVEEGEGEVVAKALVELPNGERVVVSSEVLKELLEENPDVDVSSAGGSAGG [r6_77_TrMRF],0.819 ± 0.18
3,SAGGSEKIEVEVERREDGYLVLRVRLELFDENGELVEEIEIEVVLPREELEKMSLEELLKRLLEELSAGGSA [r2_421_TrROS_Hall],5.08 ± 0.67
4,SAGGNRIMFIVNSPEEAERFANFIRKHLPPGMNLEIEIEPFPLKDNVPPDDPDYKNQPVYMVHITIPSAGGS [r16_795_TrROS],3.73 ± 0.2
5,SADPLSSILSQALSVEFDPETGKVTITTKDKSIVEKALEEGAENATLTESEDDIYTATIDLPPLPEGVLSAG [r14_115_TrMRF],0.12 ± 0.39
6,SAGGKMVKIKIVVEVKVEEEVKEGEKVETFKVELTIELPEEEVEKLKAELEKLFPDVKIVEIEKVEPSAGGS [r8_490_TrROS_Hall],3.7 ± 0.34
7,SAGGSAGGMIYADNPEEFKKVVKELLKKHPKNKPVFAVLTGSNSKYVIYLSGDKLEKVLAFPVPSAGGSAGG [r6_288_TrMRF],1.38 ± 0.052
8,SAGGPLTLTIPLPDGTTITVTLTRNPDTPSYTATADITFPDGSVVRIHATINSDGSITIHSVEVFPASAGGS [r16_213_TrMRF],5.19 ± 0.18
9,SAGGSAGGSAGGMEISEKLREYIEKLGKKVSEEEALAIAEEKAKELKEKGIEDVTIVLPVSAGGSAGGSAGG [r7_512_JUSTAS],0.399 ± 0.17
10,DTVTIVVEGMSEEEVLEKARAAAEELAKEGKTVEIVVKLSPEALKKAGVEKVEEVEDEETGLLVIKVEVKPS [r1_467_TrROS_Hall],0.684 ± 0.28
11,SAGGSASAEEAARAFVAAHPDRALVEVEIERSFIPEKGVEVVTLTVTLAFPDGSRRVVPVTVTRPRSAGGSA [r15_266_JUSTAS],1.13 ± 0.071
12,SAGGSAGGMVIPFILPGSEFEEEEAIERLLELIETARELNPDTPIIANPLILEVPPPPTETELGSAGGSAGG [r6_728_TrMRF],1.22 ± 0.28
13,SKTVVIKIDNRVPVPKSDKYVPIKEEFFLKVINEIKKKGYKVIITGANPDNPLAKEVAKKAKELGFEVVGSA [r9_468_TrMRF],0.922 ± 0.065
14,SAGGSAGGSAGGKPVKLEISFDKETNTITIKAVDEENKTVTETTIKVTFLPPPPPPPPKSAGGSAGGSAGGS [r10_331_TrROS_Hall],2.03 ± 0.48
15,SAKKKYIAKVLIEKGDKIIEIEIPGDATVKNPDGKEYTFKVESPEKLKEAIKKLFPEKYPAKILEVKEESAG [r14_41_TrMRF],1.54 ± 0.18
16,SAGPEREVEVETLVIEAEDGKERLVLRLVRVDGRLYLEVRRYRDGKWEEVARFEAPEEITLSPELLKALSAG [r5_490_TrROS_Hall],4.16 ± 0.078
17,SAERTPVREADIPIPGLPVVVRVRTYAEAVELARKSGVPVVVETVEVEVFLPDGSRVRFPAPGLLVLDGSAG [r14_100_TrMRF],1.5 ± 0.036
